Consider one molecule from PMC8326117 (International Journal of Biological Sciences, 2021).

The target in the test is SARS-CoV-2 S-protein RBD (SARS-CoV-2, UniProt P0DTC2). The experiment in a line: SPR. The note with it: both partners purified.

B1: S-protein neutralizing peptide AYn1 (peptide)
peptide: KKKKKKDKFNHEAEDLFY
notes: also called 6K-modified AYn1 peptide
On to B1, for which the affinity, expressed as Kd, was 95.6 nM. That is a double-digit nanomolar value.

By Kd is commonly meant the equilibrium constant for the complex coming apart. A low value points to higher affinity.
